According to US20060269542A1, “Immunoliposome composition for targeting to a HER2 cell receptor” (priority 2005, published 2006):
Values after ≈ are worked out from the molar mass of the structure shown.

B1: anti-Her2 immunoliposome formulation with scFv/liposome ratio of 5 (scFv)
scFv: QVQLVESGGGLVQPGGSLRLSCAASGFTFRSYAMSWVRQAPGKGLEWVSAISGRGDNTYYADSVKGRFTISRDNSKNTLYLQMNSLRAEDTAVYYCAKMTSNAFAFDYWGQGTLVTVSSGGGGSGGGGSGGGGSQSVLTQPPSVSGAPGQRVTISCTGSSSNIGAGYGVHWYQQLPGTAPKLLIYGNTNRPSGVPDRFSGFKSGTSASLAITGLQAEDEADYYCQSYDSSLSGWVFGGGTKLTVLG
modifications: terminal cysteine coupled through a thioether linkage to maleimide-PEG-DSPE
B2: Anti-HER2 Immunoliposomes (7.5:1) (scFv)
scFv: QVQLVESGGGLVQPGGSLRLSCAASGFTFRSYAMSWVRQAPGKGLEWVSAISGRGDNTYYADSVKGRFTISRDNSKNTLYLQMNSLRAEDTAVYYCAKMTSNAFAFDYWGQGTLVTVSSGGGGSGGGGSGGGGSQSVLTQPPSVSGAPGQRVTISCTGSSSNIGAGYGVHWYQQLPGTAPKLLIYGNTNRPSGVPDRFSGFKSGTSASLAITGLQAEDEADYYCQSYDSSLSGWVFGGGTKLTVLG
modifications: terminal cysteine coupled through a thioether linkage to maleimide-PEG-DSPE
notes: On average 7.5 scFv per liposome; also called 7.5:1 immunoliposome formulation; immunoliposomes containing 7.5 antibodies per liposome
B3: Anti-HER2 Immunoliposomes (30:1) (scFv)
scFv: QVQLVESGGGLVQPGGSLRLSCAASGFTFRSYAMSWVRQAPGKGLEWVSAISGRGDNTYYADSVKGRFTISRDNSKNTLYLQMNSLRAEDTAVYYCAKMTSNAFAFDYWGQGTLVTVSSGGGGSGGGGSGGGGSQSVLTQPPSVSGAPGQRVTISCTGSSSNIGAGYGVHWYQQLPGTAPKLLIYGNTNRPSGVPDRFSGFKSGTSASLAITGLQAEDEADYYCQSYDSSLSGWVFGGGTKLTVLG
modifications: terminal cysteine coupled through a thioether linkage to maleimide-PEG-DSPE
notes: On average 30 scFv per liposome; also called 30:1 immunoliposome formulation; F5 scFv immunoliposome
B4: Anti-HER2 Immunoliposomes (45:1) (scFv)
scFv: QVQLVESGGGLVQPGGSLRLSCAASGFTFRSYAMSWVRQAPGKGLEWVSAISGRGDNTYYADSVKGRFTISRDNSKNTLYLQMNSLRAEDTAVYYCAKMTSNAFAFDYWGQGTLVTVSSGGGGSGGGGSGGGGSQSVLTQPPSVSGAPGQRVTISCTGSSSNIGAGYGVHWYQQLPGTAPKLLIYGNTNRPSGVPDRFSGFKSGTSASLAITGLQAEDEADYYCQSYDSSLSGWVFGGGTKLTVLG
modifications: terminal cysteine coupled through a thioether linkage to maleimide-PEG-DSPE
notes: On average 45 scFv per liposome; also called 45:1 immunoliposome formulation; F5 scFv immunoliposome
B5: F5: single chain antibody fragment (scFv), 251 amino acids, binds extracellular domain of HER2 receptor, SEQ ID NO: 2 (protein, listed as Homo sapiens)
scFv: QVQLVESGGGLVQPGGSLRLSCAASGFTFRSYAMSWVRQAPGKGLEWVSAISGRGDNTYYADSVKGRFTISRDNSKNTLYLQMNSLRAEDTAVYYCAKMTSNAFAFDYWGQGTLVTVSSGGGGSGGGGSGGGGSQSVLTQPPSVSGAPGQRVTISCTGSSSNIGAGYGVHWYQQLPGTAPKLLIYGNTNRPSGVPDRFSGFKSGTSASLAITGLQAEDEADYYCQSYDSSLSGWVFGGGTKLTVLG
B6: Anti-HER2 Immunoliposomes (15:1) (scFv)
scFv: QVQLVESGGGLVQPGGSLRLSCAASGFTFRSYAMSWVRQAPGKGLEWVSAISGRGDNTYYADSVKGRFTISRDNSKNTLYLQMNSLRAEDTAVYYCAKMTSNAFAFDYWGQGTLVTVSSGGGGSGGGGSGGGGSQSVLTQPPSVSGAPGQRVTISCTGSSSNIGAGYGVHWYQQLPGTAPKLLIYGNTNRPSGVPDRFSGFKSGTSASLAITGLQAEDEADYYCQSYDSSLSGWVFGGGTKLTVLG
modifications: terminal cysteine coupled through a thioether linkage to maleimide-PEG-DSPE
notes: On average 15 scFv per liposome; also called 15:1 immunoliposome formulation; immunoliposomes with 15 antibodies per liposome

Experiments:
[1] = system: SK-BR-3 human breast carcinoma cells; test: cells; assay type: cell-based; details: 10-min exposure, then 72 hours growth, read-out: IC50 (doxorubicin concentration resulting in 50% cell growth inhibition)
Method: SK-BR-3 human breast carcinoma cell line was purchased from American Tissue Type Culture Collection (ATCC, Manassas, Va.). Cells were maintained in in vitro culture in McCoy's 5A modified medium supplemented with 10% fatal bovine serum and were maintained in a humidified incubator at 37° C.
Cells were exposed for 10 minutes to doxorubicin (1.8 mg/mL) in free form, doxorubicin entrapped in PEGylated liposomes (2.06 mg/mL), or an immunoliposome formulation having 2 antibodies per liposome (1.86 mg/mL), 5 antibodies per liposome (2.12 mg/mL), 7.5 antibodies per liposome (1.99 mg/mL), or 15 antibodies per liposome (2 mg/mL).
Log-phase SK-BR-3 breast cancer cells were harvested using Versene (1:5000), resuspended in growth media at concentration of 5×10^4 cells/mL. […] At the end of incubation, the amount of viable cells was determined using the Promega CellTiter 96® Aqueous One Solution Cell Proliferation Assay (a tetrazolium based colorimetric method for determining the number of viable cells in proliferation, Madison, Wis.). […] The plates were then incubated for 3-4 hours after which absorbance was recorded at 490 nm with a microplate reader. Cell viability was calculated as % of untreated control using the formula: % Viability=(A−A0)/(A100−A0)×100% where A is the measured absorbance, A0 is the absorbance of the blanks, and A100 is the absorbance of the wells with untreated cells. […]

[2] = molecular target: T1, HER2 receptor (human, UniProt P04626 23-1255); test: cell-based or functional assay
[3] = molecular target: T1, HER2 receptor; test: 4 h incubation of immunoliposomes with SK-BR-3 cells (IHC 3+), wash, lysis, doxorubicin fluorescence
Method: SK-BR-3 or MCF-7 cells at 1.5×10⁵ cells/0.5 mL of growth medium per well were added to a 24-well plate. After overnight incubation for attachment and acclimation, cells were treated with immunoliposomes ([…], 15:1, 30:1, and 45:1 anti-HER2 antibodies:liposome), or liposomes at 0.015 mg/mL in 0.5 mL growth media/well in duplicates. The 24-well plates were then placed on a rotating platform inside the incubator with rotation at 40-60 rpm at 37° C., 5% CO₂, and 100% humidity for 4 hours. After incubation, cell medium were aspirated and cells were washed four times with Hank's Balanced Salt Solution (HBSS). After this, cells were lysed by adding 0.1 mL of 1% Triton X-100 to each well. The plates were swirled to mix and placed on a rotating platform for 15 minutes at room temperature. During this step, cells detached from the bottom of the plate and the cell nuclei formed visible clumps. Acid isopropanol (1.0 mL) were added to the wells containing the Triton X-100 solution and mixed by swirling or pipetting up and down until the visible clumps disappeared.
Doxorubicin content in the cell lysates was measured by a spectrofluorometer using an excitation wavelength of 470 nm and an emission wavelength of 590 nm. The spectrofluorometer settings were as follows: slit width 2 nm, integration time 1 second, photomultiplier voltage 950 V, and single wavelength acquisition mode. Fluorescence of the background cell lysate was subtracted and the amount of doxorubicin in the cell lysates was determined from the concurrently measured standards (10, 25, 50, 100, 250, 500, 1000, and 2500 ng of doxorubicin per sample) fit to a standard curve using quadratic polynomial regression. Cell uptake of doxorubicin was determined by interpolation from the standard curve.

[4] = molecular target: extracellular domain of HER2 receptor (Homo sapiens, UniProt P04626); details: read-out: HER2 binding affinity (Kd); cited from earlier work

Row | Molecule | IC50 (cytotoxicity, SK-BR-3 cells, 10-min exposure, doxorubicin concentration) [2] | Doxorubicin (pg/cell), cellular binding/uptake [3] | further results
1 | COc1cccc2c1C(=O)c1c(O)c3c(c(O)c1C2=O)C[C@@](O)(C(=O)CO)C[C@@H]3O[C@H]1C[C@H](N)[C@H](O)[C@H](C)O1 [free doxorubicin, doxorubicin] |  |  | IC50 [1]: ~9.5 µg/mL (≈ 17.5 µM)
2 | B1 | ~30 µg/mL |  | 
3 | B2 | ~16 µg/mL | 6.02 pg/cell | 
4 | B3 |  | 6.66 pg/cell | 
5 | B4 |  | 4.39 pg/cell | 
6 | B5 |  |  | Kd [4]: 150 to 300 nM
7 | B6 | ~3.9 µg/mL | 8.35 pg/cell | 
